Measurements published in patent US20050262592.

Key:
streptokinase, P00779 = target: T1, streptokinase, P00779
T1 chain: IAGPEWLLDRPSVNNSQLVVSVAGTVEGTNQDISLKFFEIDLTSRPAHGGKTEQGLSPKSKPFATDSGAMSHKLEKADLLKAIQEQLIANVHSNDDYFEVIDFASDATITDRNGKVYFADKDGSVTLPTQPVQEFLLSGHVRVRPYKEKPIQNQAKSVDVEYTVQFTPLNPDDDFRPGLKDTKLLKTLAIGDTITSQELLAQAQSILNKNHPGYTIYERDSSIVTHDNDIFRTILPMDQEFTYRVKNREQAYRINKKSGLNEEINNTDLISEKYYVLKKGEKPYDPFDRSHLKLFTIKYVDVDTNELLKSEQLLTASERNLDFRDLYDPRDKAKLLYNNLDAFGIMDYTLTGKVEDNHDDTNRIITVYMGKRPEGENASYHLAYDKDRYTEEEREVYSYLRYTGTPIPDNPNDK

[1] = target: T2, duckweed-produced human microplasminogen
T2 chain: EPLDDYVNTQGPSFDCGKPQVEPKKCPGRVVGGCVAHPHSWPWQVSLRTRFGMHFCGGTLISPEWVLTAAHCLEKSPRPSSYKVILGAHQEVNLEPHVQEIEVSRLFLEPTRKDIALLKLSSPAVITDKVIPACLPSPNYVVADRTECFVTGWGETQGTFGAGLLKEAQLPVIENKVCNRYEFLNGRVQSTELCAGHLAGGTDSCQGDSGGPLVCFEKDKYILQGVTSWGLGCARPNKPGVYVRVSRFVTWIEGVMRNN

B1: duckweed-produced human microplasminogen (protein)
chain: EPLDDYVNTQGPSFDCGKPQVEPKKCPGRVVGGCVAHPHSWPWQVSLRTRFGMHFCGGTLISPEWVLTAAHCLEKSPRPSSYKVILGAHQEVNLEPHVQEIEVSRLFLEPTRKDIALLKLSSPAVITDKVIPACLPSPNYVVADRTECFVTGWGETQGTFGAGLLKEAQLPVIENKVCNRYEFLNGRVQSTELCAGHLAGGTDSCQGDSGGPLVCFEKDKYILQGVTSWGLGCARPNKPGVYVRVSRFVTWIEGVMRNN
- activity following activation by streptokinase (chromogenic substrate assay as for plasminogen) (streptokinase, P00779): The duckweed-produced microplasminogen showed some level of activity in the absence of streptokinase, and a significant increase in activity following activation by streptokinase

B2: duckweed-produced human plasminogen (protein)
chain: KVYLSECKTGNGKNYRGTMSKTKNGITCQKWSSTSPHRPRFSPATHPSEGLEENYCRNPDNDPQGPWCYTTDPEKRYDYCDILECEEECMHCSGENYDGKISKTMSGLECQAWDSQSPHAHGYIPSKFPNKNLKKNYCRNPDRELRPWCFTTDPNKRWELCDIPRCTTPPPSSGPTYQCLKGTGENYRGNVAVTVSGHTCQHWSAQTPHTHNRTPENFPCKNLDENYCRNPDGKRAPWCHTTNSQVRWEYCKIPSCDSSPVSTEQLAPTAPPELTPVVQDCYHGDGQSYRGTSSTTTTGKKCQSWSSMTPHRHQKTPENYPNAGLTMNYCRNPDADKGPWCFTTDPSVRWEYCNLKKCSGTEASVVAPPPVVLLPDVETPSEEDCMFGNGKGYRGKRATTVTGTPCQDWAAQEPHRHSIFTPETNPRAGLEKNYCRNPDGDVGGPWCYTTNPRKLYDYCDVPQCAAPSFDCGKPQVEPKKCPGRVVGGCVAHPHSWPWQVSLRTRFGMHFCGGTLISPEWVLTAAHCLEKSPRPSSYKVILGAHQEVNLEPHVQEIEVSRLFLEPTRKDIALLKLSSPAVITDKVIPACLPSPNYVVADRTECFVTGWGETQGTFGAGLLKEAQLPVIENKVCNRYEFLNGRVQSTELCAGHLAGGTDSCQGDSGGPLVCFEKDKYILQGVTSWGLGCARPNKPGVYVRVSRFVTWIEGVMRNN
- cleavage of the chromogenic substrate Glu-Phe-Lys-pNA at 405 nm (streptokinase, P00779): For each of the seven transgenic lines tested, the activity level was closely correlated with the protein expression levels as determined by ELISA
- streptokinase activity assay (cleavage of a chromogenic substrate, Coamatic plasminogen kit) (streptokinase, P00779): Activation with streptokinase also produced activated plasminogen

B3: tissue plasminogen activator (protein)
chain: SYQVICRDEKTQMIYQQHQSWLRPVLRSNRVEYCWCNSGRAQCHSVPVKSCSEPRCFNGGTCQQALYFSDFVCQCPEGFAGKCCEIDTRATCYEDQGISYRGTWSTAESGAECTNWNSSALAQKPYSGRRPDAIRLGLGNHNYCRNPDRDSKPWCYVFKAGKYSSEFCSTPACSEGNSDCYFGNGSAYRGTHSLTESGASCLPWNSMILIGKVYTAQNPSAQALGLGKHNYCRNPDGDAKPWCHVLKNRRLTWEYCDVPSCSTCGLRQYSQPQFRIKGGLFADIASHPWQAAIFAKHRRSPGERFLCGGILISSCWILSAAHCFQERFPPHHLTVILGRTYRVVPGEEEQKFEVEKYIVHKEFDDDTYDNDIALLQLKSDSSRCAQESSVVRTVCLPPADLQLPDWTECELSGYGKHEALSPFYSERLKEAHVRLYPSSRCTSQHLLNRTVTDNMLCAGDTRSGGPQANLHDACQGDSGGPLVCLNDGRMTLVGIISWGLGCGQKDVPGVYTKVTNYLDWIRDNMRP
- Western blot: production of the B chain of plasmin [1]: Western blot analysis confirmed the production of the B chain of plasmin following activation of duckweed-produced microplasminogen with either urokinase or tPA
